In the supplement of paper PMC10567573 one finds protein stability index data, which are given here for 53 proteins.

The nature of this data set: protein stability index of a GFP-peptide fusion (GPS, HEK-293T) (PSI 1-6); higher = more stable.
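Further: lentivirally expressed fusions sorted by FACS into six bins by GFP to DsRed ratio, PSI derived from sequencing read proportions per bin multiplied by bin number.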

Turning to HRRGLGVDSKPELQRVLEHRRRNQ, for the setting “parent: IOH10203_10, c terminus: a fixed tail appended”, the protein stability index was 3.91.
Take VKKSCWTEEEDRIICEAHKVLGNR: under “parent: IOH6886_23, c terminus: a fixed tail appended”, the protein stability index turned out to be 3.18.
For the protein FSSSSQEAFAASAVGSGERRGGGP, the protein stability index (parent: IOH10718_37, c terminus: a fixed tail appended) stood at 3.33.
Consider KKFLTLGSKFRYSGRTQAQTRRAS, for which, for the setting “parent: IOH6638_67, c terminus: a fixed tail appended”, the protein stability index came out at 2.96.
KSPIAPCSLDKRVILIFHCEFSSE: the protein stability index (parent: IOH6456_79, c terminus: a fixed tail appended) is 2.62.
LQRVLEHRRRNQLIKKKKEELEAK: the protein stability index (parent: IOH10203_12, c terminus: a fixed tail appended) is 3.41.
With DMRDPTYRPLKQELQGLDYCKPTR [SPSB1 WT], the protein stability index (parent: IOH10100_3, c terminus: a fixed tail appended) turned out to be 3.17.
With SELGDYDPDECGSDYISEFRFAPN, the protein stability index (parent: IOH6638_40, c terminus: a fixed tail appended) amounted to 1.93.
Consider SMQCKVILLDGSEYTCDVEKRSRG, for which the protein stability index (parent: IOH6638_19, c terminus: a fixed tail appended) is 2.79.
With YHTGKTPFVCPECGQPCSQKSGLI, the protein stability index (parent: IOH7272_62, c terminus: a fixed tail appended) came to 1.66.
On to RPFDCPVCNKKFKMKHHLTEHMKT, for which, where the note is “parent: IOH10718_86, c terminus: a fixed tail appended”, the protein stability index worked out at 2.37.
On to QARLRDVSRREGALGWAPAAPPPL, for which the protein stability index (parent: IOH6801_33, c terminus: a fixed tail appended) came to 3.31.
Take LDMDEGTLSFIVDGQYLGVAFRGL [SPSB4 WT]: where the note is “parent: IOH6956_31, c terminus: a fixed tail appended”, the protein stability index was 2.49.
With LVAHQRYHTGKTPFVCPECGQPCS, the protein stability index (parent: IOH7272_61, c terminus: a fixed tail appended) stood at 3.29.
As to FRFAPNHTKELEDKVIELHKSHRG, the protein stability index (parent: IOH6638_43, c terminus: a fixed tail appended) turned out to be 2.13.
Consider NRFRVEISFHFEVTNHNIRLFEDV, for which the protein stability index (parent: IOH10304_48, c terminus: a fixed tail appended) amounted to 2.93.
Take MTKAQESLTLEDVAVDFTWEEWQF: the protein stability index (parent: IOH7272_1, c terminus: a fixed tail appended) stood at 3.04.
As for AVNLSVSTLPSLREEEEQVRAHAP, the protein stability index (parent: IOH6461_41, c terminus: a fixed tail appended) was 5.01.
Take YHNSPAYLAYINAKSRAEAALEEE [SMARCE1 WT]: the protein stability index (parent: IOH7424_23, c terminus: a fixed tail appended) came out at 2.1.
Consider FVDILESDLKDDDAVPPGMESLIS, for which the protein stability index (parent: IOH6456_46, c terminus: a fixed tail appended) came out at 3.07.
Consider YHSQDRYEFSSHITRGEHRFHMS, for which the protein stability index (parent: IOH9679_77, c terminus: native) was 2.09.
In the case of GSKFRYSGRTQAQTRRASALIDRP, the protein stability index (parent: IOH6638_68, c terminus: a fixed tail appended) turned out to be 3.09.
REQADSCREQLDIMNDLSNRVWSI: the protein stability index (parent: IOH6488_25, c terminus: a fixed tail appended) came out at 2.18.
For AFGWFRCSSCQRSWASAQVQILCH, the protein stability index (parent: IOH10686_9, c terminus: a fixed tail appended) was determined as 2.29.
For GPGFHAGTSALWRHLRSAHRRELE, the protein stability index (parent: IOH6801_14, c terminus: a fixed tail appended) is 2.28.
Consider FSPSQFLNFWNKQDTLELESPSLT, for which the protein stability index (parent: IOH6886_76, c terminus: a fixed tail appended) turned out to be 2.12.
As to DECEKAYFYMSCLVKHKRIHSREK, the protein stability index (parent: IOH7272_73, c terminus: a fixed tail appended) stood at 2.53.
As to KSCQACRLRKCYEVGMVKCGSRRE [ESR2 WT], the protein stability index (parent: IOH10714_34, c terminus: a fixed tail appended) is 1.85.
For the protein ELKTFRLKTRSWAGERSRRELCSR, the protein stability index (parent: IOH6456_93, c terminus: a fixed tail appended) turned out to be 3.35.
For the protein IAKHLKGRLGKQCRERWHNHLNPE, the protein stability index (parent: IOH6886_19, c terminus: a fixed tail appended) stood at 1.82.
Consider TYECRCIGEEKEMWNFGEKYARF [TIA1 WT], for which the protein stability index (parent: IOH10042_33, c terminus: native) was 1.9.
Consider RAQMIRNEYRKLHPVLHKEEKQHL, for which the protein stability index (parent: IOH10304_30, c terminus: a fixed tail appended) worked out at 3.05.
LFVTVTAVNLSVSTLPSLREEEEQ: the protein stability index (parent: IOH6461_40, c terminus: a fixed tail appended) stood at 2.13.
Take SDYISEFRFAPNHTKELEDKVIEL: the protein stability index (parent: IOH6638_42, c terminus: a fixed tail appended) was 2.07.
As for FVEDSFDPNINPTIGASFMTKTVQ [RAB22A WT], the protein stability index (parent: IOH10004_5, c terminus: a fixed tail appended) is 2.26.
Consider YQAGKPDALTKLEQGEPLWTLEDE, for which, where the note is “parent: IOH7272_9, c terminus: a fixed tail appended”, the protein stability index was determined as 4.34.
As to FLRGPSGPRFGPRNDKIKHVQNQV, the protein stability index (parent: IOH7463_7, c terminus: a fixed tail appended) was 2.7.
In the case of YARTPTLDPDTMHARLRLSADRLT, the protein stability index (parent: IOH6488_45, c terminus: a fixed tail appended) came to 2.62.
Take RDPFECNMCGYHSQDRYEFSSHIT: the protein stability index (parent: IOH9679_75, c terminus: a fixed tail appended) was found to be 1.89.
On to HIKLHSGEKPFKCHLCNYACRRRD, for which, under “parent: IOH9679_28, c terminus: a fixed tail appended”, the protein stability index amounted to 1.92.
Turning to TSGKRYVYRFVCDLQNLLGFTPEE [ETS2 WT], where the note is “parent: IOH10422_73, c terminus: a fixed tail appended”, the protein stability index was 2.7.
With FLRQLPFRGDDGIFDDNFIEERKQ [SNX3 WT], the protein stability index (parent: IOH7529_17, c terminus: a fixed tail appended) worked out at 3.4.
Consider HTGLKPYECGVCAKKFMWRDSFMR, for which the protein stability index (parent: IOH10718_90, c terminus: a fixed tail appended) was 2.3.
Turning to MYKLSSEQFHEAASKMESTIKPRR [CHCHD6 WT], for the setting “parent: IOH6589_29, c terminus: a fixed tail appended”, the protein stability index turned out to be 3.65.
For LTEHKRIHTGKKPHVCSLCGKAFY, under “parent: IOH7272_33, c terminus: a fixed tail appended”, the protein stability index was found to be 2.52.
As for YQEIFQQLQRSWVKMDQKSKHLKE, where the note is “parent: IOH10304_35, c terminus: a fixed tail appended”, the protein stability index is 2.05.
With IMALVAAILLLVIIILIVMKYRT, the protein stability index (parent: IOH7463_24, c terminus: native) came out at 2.83.
In the case of FCDMDKSLLCLLCSNSQEHGAHKH, the protein stability index (parent: IOH10304_18, c terminus: a fixed tail appended) amounted to 1.87.
As to FPNRTDQQCQYRWLRVLNPDLVKG, the protein stability index (parent: IOH6886_11, c terminus: a fixed tail appended) was found to be 2.01.
For the protein EHERAHRGEKPHGCSLCGKAFYKR, the protein stability index (parent: IOH7272_38, c terminus: a fixed tail appended) turned out to be 2.1.
Take AVLAASSPYFHDQVLLKGMTSISL: the protein stability index (parent: IOH10718_13, c terminus: a fixed tail appended) was 2.63.
Regarding TYWEHWTSQGQVRMRLFGQRCQKC, the protein stability index (parent: IOH10686_13, c terminus: a fixed tail appended) is 1.83.
With NNSWIRKNSTMVNSEDIFLLLCLK, the protein stability index (parent: IOH10304_60, c terminus: a fixed tail appended) came out at 2.69.
